Reference: article PMC7721647, “The Human RNA Helicase DDX21 Presents a Dimerization Interface Necessary for Helicase Activity” (iScience, 2020)
Substitutions are numbered along the chain they refer to.

Tests used:
[1] = target: DDX21_(Core-DD) (human); assay: SEC-SAXS; SAXS coupled to size exclusion chromatography; oligomeric state from SAXS molecular weight estimates (Table S3)
[2] = target: DDX21_(Core-DD) (human); assay: SEC-MALS; purified DDX21 constructs alone; conditions in the Transparent Methods (not shown)
[3] = target: DDX21_(Core-DD) (human); assay: mass photometry; purified proteins alone in the low nanomolar range (30 and 15 nM); monomer to dimer
[4] = target: the molecule itself; assay: cell-based or functional assay
[5] = target: the molecule itself; assay: SEC-MALS; purified DDX21 constructs alone; conditions in the Transparent Methods (not shown)
[6] = target: the molecule itself; assay: mass photometry; DDX21Fl-R-loop complex at 30 nM
[7] = target: the molecule itself; assay: SEC-SAXS; SAXS coupled to size exclusion chromatography; oligomeric state from SAXS molecular weight estimates (Table S3)
[8] = target: T1, DDX21Fl (human, UniProt Q9NR30 1-783); assay: fluorescence polarization; FP: 50 mM Tris pH 7.5, 50 mM KCl, 5 mM MgCl2, no ATP; Hill-slope fit; temperature not given in the material; conditions: protein: recombinant; tags: N-terminal Trx-His6, cut with thrombin; chain copies: 2; label: 5'-FAM on RNA; R-loop: 15-mer RNA on DNA oligo 1; DNA duplex arms with unpaired DNA oligo 2 loop
T1 sequence: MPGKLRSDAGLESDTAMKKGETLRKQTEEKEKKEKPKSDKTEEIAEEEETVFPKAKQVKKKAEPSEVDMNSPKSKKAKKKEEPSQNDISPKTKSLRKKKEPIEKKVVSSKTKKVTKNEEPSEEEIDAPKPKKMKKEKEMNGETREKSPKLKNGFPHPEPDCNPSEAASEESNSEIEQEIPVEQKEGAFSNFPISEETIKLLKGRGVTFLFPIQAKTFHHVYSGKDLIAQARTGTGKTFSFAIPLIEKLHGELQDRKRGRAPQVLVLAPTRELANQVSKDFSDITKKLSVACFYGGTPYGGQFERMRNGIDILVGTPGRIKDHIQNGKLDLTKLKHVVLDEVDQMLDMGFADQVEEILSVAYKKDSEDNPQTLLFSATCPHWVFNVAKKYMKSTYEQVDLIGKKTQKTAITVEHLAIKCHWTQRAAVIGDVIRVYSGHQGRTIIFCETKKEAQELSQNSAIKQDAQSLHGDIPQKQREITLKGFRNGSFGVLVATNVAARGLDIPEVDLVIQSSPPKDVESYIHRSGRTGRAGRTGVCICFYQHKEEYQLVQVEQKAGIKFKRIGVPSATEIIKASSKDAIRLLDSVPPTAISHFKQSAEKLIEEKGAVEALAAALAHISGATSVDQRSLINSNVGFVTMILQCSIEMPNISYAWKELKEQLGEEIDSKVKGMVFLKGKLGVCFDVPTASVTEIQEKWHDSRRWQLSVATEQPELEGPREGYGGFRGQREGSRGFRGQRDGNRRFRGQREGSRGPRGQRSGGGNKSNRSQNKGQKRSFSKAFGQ

## DDX21_(Core-DD) (domain or fragment)
[1]
  stoichiometry N: 2
[2]
  stoichiometry N: 2
[3]
  stoichiometry N: 2

B1: DDX21Fl monomer mutant (enzyme)
chain: T1 sequence with L611R, A612R, A613R, A614R, L615R, A616R
[4]
  dsRNA unwinding (in vitro helicase assay with RNase T1), activity relative to the dimeric protein: ~50%

B2: DDX21ΔN monomer mutant (domain or fragment)
chain: GAFSNFPISEETIKLLKGRGVTFLFPIQAKTFHHVYSGKDLIAQARTGTGKTFSFAIPLIEKLHGELQDRKRGRAPQVLVLAPTRELANQVSKDFSDITKKLSVACFYGGTPYGGQFERMRNGIDILVGTPGRIKDHIQNGKLDLTKLKHVVLDEVDQMLDMGFADQVEEILSVAYKKDSEDNPQTLLFSATCPHWVFNVAKKYMKSTYEQVDLIGKKTQKTAITVEHLAIKCHWTQRAAVIGDVIRVYSGHQGRTIIFCETKKEAQELSQNSAIKQDAQSLHGDIPQKQREITLKGFRNGSFGVLVATNVAARGLDIPEVDLVIQSSPPKDVESYIHRSGRTGRAGRTGVCICFYQHKEEYQLVQVEQKAGIKFKRIGVPSATEIIKASSKDAIRLLDSVPPTAISHFKQSAEKLIEEKGAVEARRRRRRHISGATSVDQRSLINSNVGFVTMILQCSIEMPNISYAWKELKEQLGEEIDSKVKGMVFLKGKLGVCFDVPTASVTEIQEKWHDSRRWQLSVATEQPELEGPREGYGGFRGQREGSRGFRGQRDGNRRFRGQREGSRGPRGQRSGGGNKSNRSQNKGQKRSFSKAFGQ
[4]
  dsRNA unwinding (in vitro helicase assay with RNase T1), activity relative to the dimeric protein: ~50%

B3: full-length DDX21 (DDX21Fl), affinity tag cleaved (enzyme, human, UniProt Q9NR30 1-783, looked up)
chain: T1 sequence
notes: human DEAD-box RNA helicase DDX21, full length; Tag state is told only for the SEC-MALS mass (cleaved); Construct details are in the Transparent Methods; also called nucleolar RNA helicase II/Guα; source: Transparent Methods
[5]
  stoichiometry N: 2

B4: full-length DDX21 (DDX21Fl) with uncleaved affinity tag (enzyme, human, UniProt Q9NR30 1-783, looked up)
chain: T1 sequence
notes: human DEAD-box RNA helicase DDX21, full length; Form used in mass photometry; also called wild-type protein; source: Transparent Methods
[6]
  stoichiometry N: 2

B5: DDX21ΔN (domain or fragment, human, UniProt Q9NR30 186-783, looked up)
chain: B2 chain with R426L, R427A, R428A, R429A, R430L, R431A
notes: human DDX21 without the N-terminal 185 amino acids (start 186 worked out from this statement); source: Transparent Methods
[7]
  stoichiometry N: 2

B6: R-loop (mixed)
RNA: GUUUCGGAUCGACGC
DNA 1: GTACCCGGGGATCCTCTAGAGTCGAGCGTCGATCCGAAACTTGGCACTGGCCGTCGTTTTACAAC
DNA 2: GTTGTAAAACGACGGCCAGTGCCTTTTCCCAGCCTCAATCTCATCACTCTAGAGGATCCCCGGGTAC
[8]
  Kd: 9.2 ± 0.7 nM
